{"source": "paper PMC11078181", "about": "“Genomic context– and H2AK119 ubiquitination–dependent inheritance of human Polycomb silencing” (Science Advances, 2024)", "binders": {"B1": {"name": "GST-BCORL(S1474-G1644) (domain or fragment, UniProt Q5H9F3 1474-1644, looked up)", "chain": "SESPTARQIPPEARRLIVNKNAGETLLQRAARLGYKDVVLYCLQKDSEDVNHRDNAGYTALHEACSRGWTDILNILLEHGANVNCSAQDGTRPVHDAVVNDNLETIWLLLSYGADPTLATYSGQTAMKLASSDTMKRFLSDHLSDLQGRAEGDPGVSWDFYSSSVLEEKDG", "notes": "also called GST-BCORL fragment; source: E. coli BL21, purified (Glutathione Sepharose 4B, eluted with glutathione, dialysed); not shown: GST, N-terminal, kept"}}, "biological_target": "T1, Strep-RBBP7 (UniProt Q16576 1-425)", "T1 construct": "called full-length in the results; also called full-length RBB7; source: HEK293FT, transiently transfected, purified (Strep-Tactin Sepharose, eluted with desthiobiotin)", "T1 sequence (Q16576 whole entry)": "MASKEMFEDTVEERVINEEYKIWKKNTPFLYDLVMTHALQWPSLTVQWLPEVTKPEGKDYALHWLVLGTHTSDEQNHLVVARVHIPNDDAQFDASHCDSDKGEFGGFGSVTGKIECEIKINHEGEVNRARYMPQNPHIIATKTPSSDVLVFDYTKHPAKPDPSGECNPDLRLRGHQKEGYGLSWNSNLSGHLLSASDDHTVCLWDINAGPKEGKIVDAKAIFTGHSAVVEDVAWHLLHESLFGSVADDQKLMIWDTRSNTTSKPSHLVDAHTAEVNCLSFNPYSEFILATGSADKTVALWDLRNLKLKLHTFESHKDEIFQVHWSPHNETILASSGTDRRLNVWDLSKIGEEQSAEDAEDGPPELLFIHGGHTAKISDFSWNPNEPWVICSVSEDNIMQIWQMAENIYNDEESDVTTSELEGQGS", "test": "pull-down; GST or GST-BCORL(S1474-G1644) (0.1 μM) on Glutathione Sepharose 4B with Strep-RBBP7 (0.1 μM), lysis buffer with 0.1% Triton X-100, overnight at 4°C; stain-free SDS-PAGE", "settings": "both partners purified"}
{"binder": "B1", "values": [{"measurement": "binding result", "result": "binds"}]}
